Experimental data taken from patent US20110319338A1, “PEPTIDES THAT BIND EUKARYOTIC TRANSLATION INITIATION FACTOR 4E” (The Board of Regents of the University of Texas System, priority 2008, published 2011).
Square brackets hold non-standard residues; d marks the D form. Ends that are not written are not given here.

System: ES-2-GFP cells
Test: Mouse i.p. xenograft model of epithelial ovarian cancer
Assay type: in vivo
Protocol: FIGS. 4A-4C. Anti-tumor activity of [DLys6]GnRH-4EBP1-WT peptide in a xenograft model of EOC. Female nude mice were inoculated i.p. with one million ES-2-GFP cells. At Day 9 after tumor cell inoculation, one group of mice (n=5) was sacrificed (pre-treatment). At Day 9, other groups of mice were administered by i.p. injection with saline (n=11), [DLys6]GnRH (n=11) or [DLys6]GnRH-4EBP1-WT (n=11) at a dose of 3.0 nanomoles per gram body weight Saline or peptide was administered every 2 days thereafter for 11 days (6 doses in total), and mice were sacrificed on Day 20. (FIG. 4A) Visualization under a fluorescence stereoscope of i.p. tumors in pre-treatment mice (at Day 9) including implants on the omentum (ome), and in mice treated with saline, with agonist alone and with [DLys6]GnRH-4EBP1-WT (at Day 20). (FIG. 4B) Hematoxylin eosin-stained sections of tissues of pre-treatment mice (at Day 9) and of saline- and peptide-treated mice (at Day 20). Tumors attached to the omentum extensively involved the pancreas in saline- and agonist-treated mice. Also shown are tumors attached to the broad ligament and mesentery. Bar, 200 micrometers. (FIG. 4C) Quantification of i.p. tumor burden in pre-treatment and treated mice that completed the regimen, expressed as the average percent of area of fluorescence within the abdominal cavity in captured images, and volume of ascites. Median values of tumor burden and ascites volume for each group and statistical significance of differences between groups are indicated.
Animal Studies. Animal studies were approved by the Institutional Animal Care and Use Committee. The ES-2 cell line stably expressing enhanced green fluorescent protein (ES-2-GFP) has been described in previous work (Hara et al., 2007). Four-week-old female nude mice were inoculated i.p. at one site in the lower abdomen with 10^6 ES-2-GFP cells. At Day 9 after tumor cell inoculation, one group of mice (n=5) were killed by CO2 asphyxiation. At Day 9, other groups of mice were administered by i.p. injection with 200 microliters of phosphate-buffered saline (PBS) (n=11), [DLys6]GnRH (n=11) or [DLys6]GnRH-4EBP1-WT peptide (n=11) at a dose of 3.0 nanomoles per gram body weight. Peptides were suspended in PBS and administered at a volume of 200 microliters. PBS or peptide was administered every 2 days thereafter for 11 days (6 doses in total). Mice were sacrificed on Day 20, and ascites harvested. Tumors were visualized under a Leica MZML III fluorescence stereomicroscope equipped with mercury lamp power supply and green fluorescent protein (GFP) filter set. Tumor burden was quantified by measuring areas of fluorescence signals within the abdominal cavity in captured images by using Image Pro Plus 5.0 software (Media Cybernetics, Bethesda, Md.). Slides of paraffin-embedded tissues collected from mice were stained with hematoxylin-eosin. TUNEL-staining of tissue sections was performed using the in situ cell death detection kit (Roche).
To determine the efficacy of [DLys6]GnRH-4EBP1-WT peptide in vivo, a mouse i.p. xenograft model was used that was established from an ES-2 cell line stably expressing GFP (Hara et al., 2007). This model mimics the typical behavior of epithelial ovarian cancer, including i.p. dissemination and ascites formation. This example comprised three treatment groups of mice i) saline, ii) [DLys6]GnRH agonist, and iii) [DLys6]GnRH-4EBP1-WT, where sample size of each group was n=11. The first dose of peptide or saline was administered i.p. to mice at Day 9 after tumor cell inoculation. At Day 9, no ascites had yet formed but tumors had established on the omentum, broad ligament and mesentery which are common sites of ovarian cancer cell attachment (FIGS. 4A,B). A schedule in which peptide was administered every 2 days was chosen, based on the studies of peptide stability in serum (FIG. 6).
Based on studies of other agonist conjugates in xenograft models (19-21), a peptide dose of 3.0 nanomoles per gram body weight was used. […]

[1] = drop-out mice, individual animals

[DLys6]GnRH: GnRH agonist with a D-amino acid substitution at position 6; GnRH-RI-targeting moiety (QHWSY[dK]LRPG; not fully specified (residue 1, C-terminus); ends and bridges not checked)
Ascites volume [1]: 8.9 mL
Percent i.p. tumor burden [1]: 40.9%
i.p. tumor burden, percent of the abdominal cavity (mean) (mice that completed regimen, Day 20, 3.0 nanomoles per gram body weight i.p. every 2 days, 6 doses): 56.4%
Drop-outs (euthanized prior to completion due to morbidity related to ascites accumulation) (mouse, in vivo): 1
Mice euthanized, day (mouse, in vivo): n = 1, day 16
day of death before completing treatment regimen (mouse, in vivo): 17 days
Deaths (died before completing treatment regimen) (of 11 mice per group): 2
